The values below come from paper PMC10673952, “Stochastic chain termination in bacterial pilus assembly” (Nature Communications, 2023).

Sequences and labels used below:
B2: FimA (natural protein, E. coli, UniProt P04128 24-182, looked up)
chain: AATTVNGGTVHFKGEVVNAACAVDAGSVDQTVQLGQVRTASLAQEGATSSAVGFNIQLNDCDTNVASKAAVAFLGTAIDAGHTNVLALQSSAAGSATNVGVQILDRTGAALTLDGATFSSETTLNNGTNTIPFQARYFATGAATPGAANADATFKVQYQ
notes: also called main structural pilus subunit FimA; FimA wild-type
B4: FimI (natural protein, E. coli W3110, UniProt P39264 20-179, looked up)
chain: GNKWNTTLPGGNMQFQGVIIAETCRIEAGDKQMTVNMGQISSNRFHAVGEDSAPVPFVIHLRECSTVVSERVGVAFHGVADGKNPDVLSVGEGPGIATNIGVALFDDEGNLVPINRPPANWKRLYSGSTSLHFIAKYRATGRRVTGGIANAQAWFSLTYQ
notes: also called assembly terminator subunit FimI
B5: FimC (natural protein, E. coli, UniProt P31697 37-241, looked up)
chain: GVALGATRVIYPAGQKQEQLAVTNNDENSTYLIQSWVENADGVKDGRFIVTPPLFAMKGKKENTLRILDATNNQLPQDRESLFWMNVKAIPSMDKSKLTENTLQLAIISRIKLYYRPAKLALPPDQAAEKLRFRRSANSLTLINPTPYYLTVTELNAGTRVLENALVPPMGESTVKLPSDAGSNITYRTINDYGALTPKMTGVME
notes: also called periplasmic chaperone FimC; untagged FimC; source: in FimCF and FimCG co-expressed in the periplasm of E. coli HM125
B6: FimCHis (FimC with C-terminal hexahistidine tag) (natural protein, E. coli, UniProt P31697 37-241, looked up)
chain: GVALGATRVIYPAGQKQEQLAVTNNDENSTYLIQSWVENADGVKDGRFIVTPPLFAMKGKKENTLRILDATNNQLPQDRESLFWMNVKAIPSMDKSKLTENTLQLAIISRIKLYYRPAKLALPPDQAAEKLRFRRSANSLTLINPTPYYLTVTELNAGTRVLENALVPPMGESTVKLPSDAGSNITYRTINDYGALTPKMTGVME

Assay [1] deals with B4. Put plainly: crystal structure. The following applies: both partners purified.
For assay [2], the target named is B6. In words: crystal structure; FimCHis-FimI-FimAtHis complex, 2.8 Å, space group P6(1), two complexes in the asymmetric unit, crystals at 293 K from 0.8 M sodium formate, 100 mM Tris/acetic acid pH 8.5, 16% PEG 4000. To be noted: both partners purified.
The target of the assay “FimC” is B5. In words: refolding of the subunit with the chaperone and co-purification (cation exchange chromatography, SEC); denatured, disulfide-intact subunit diluted into buffer with an excess of FimC or FimCHis; complex purified by cation exchange and (not for FimCHisI) Superdex 75; FimCA eluted as a 1:1 complex; identity by ESI-MS. The following applies: both partners purified.

Assay [3] concerns the target B2. Put plainly: reconstitution by donor strand exchange and co-purification (cation exchange chromatography, SEC); 2 μM FimCA with 10 μM FimCAt at pH 7.0 and 37 °C overnight; FimCAA purified on Resource S and Superdex 75; identity by ESI-MS. To be noted: both partners purified.
The target in assay [4] is B6. Put plainly: crystal structure. The following applies: both partners purified.
The target of assay [5] is B4. Put plainly: cell-based or functional assay.
The target in assay [6] is B2. Put plainly: cell-based or functional assay.
Assay [7] has as its target B2. In words: chaperone exchange kinetics followed by analytical cation exchange chromatography; 4 μM complex incubated with a 9-fold molar excess (36 μM) of the differently tagged FimC (untagged FimC against FimCHis complexes, FimCHis against FimCA and FimCAA); 20 mM MES-NaOH pH 6.0, 37 °C; single-exponential fit. The following applies: both partners purified.
The next assay deals with T1, FimFt (E. coli).
T1 chain: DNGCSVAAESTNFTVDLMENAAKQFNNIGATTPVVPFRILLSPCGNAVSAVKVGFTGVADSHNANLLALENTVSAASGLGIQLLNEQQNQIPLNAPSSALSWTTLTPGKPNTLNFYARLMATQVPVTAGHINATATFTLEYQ
Described as above. To be noted: both partners purified.

Assay [8] has as its target T2, FimF-FimGt (the two subunits of the ternary FimCHisFG complex) (E. coli, UniProt P08189 21-176; P08190 24-167).
T2 chain 1: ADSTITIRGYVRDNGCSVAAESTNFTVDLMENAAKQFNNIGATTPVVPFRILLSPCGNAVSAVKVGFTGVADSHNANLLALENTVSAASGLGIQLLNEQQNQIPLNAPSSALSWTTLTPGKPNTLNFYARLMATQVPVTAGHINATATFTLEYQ
T2 chain 2: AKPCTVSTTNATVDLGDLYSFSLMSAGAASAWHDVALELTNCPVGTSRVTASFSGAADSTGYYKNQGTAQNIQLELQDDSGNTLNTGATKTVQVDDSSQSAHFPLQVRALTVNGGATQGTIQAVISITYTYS
Described as above. The following applies: both partners purified.

Assay [9] addresses T3, FimI-FimAtHis (the two subunits of the ternary FimCHisIA complex) (E. coli W3110 | E. coli, UniProt P39264 20-179; P04128 37-182).
T3 construct: also called FimI-FimA part of FimCHisIA
T3 sequence (looked up) 1: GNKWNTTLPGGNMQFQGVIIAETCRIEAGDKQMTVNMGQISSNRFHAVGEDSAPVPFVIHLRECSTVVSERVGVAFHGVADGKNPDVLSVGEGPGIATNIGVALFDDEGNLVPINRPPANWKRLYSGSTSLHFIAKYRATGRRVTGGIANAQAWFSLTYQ
T3 sequence (looked up) 2: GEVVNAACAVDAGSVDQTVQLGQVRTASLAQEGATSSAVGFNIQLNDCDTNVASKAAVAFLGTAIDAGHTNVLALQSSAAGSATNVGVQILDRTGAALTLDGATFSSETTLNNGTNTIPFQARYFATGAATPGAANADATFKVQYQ
The description is as above. The following applies: both partners purified.

The target of assay [10] is B4. The description is as above. The following applies: both partners purified.

B1: FimAtHis (wild-type FimA missing residues 1-13 but with an N-terminal hexahistidine tag) (domain or fragment, E. coli, UniProt P04128 37-182, looked up)
chain: GEVVNAACAVDAGSVDQTVQLGQVRTASLAQEGATSSAVGFNIQLNDCDTNVASKAAVAFLGTAIDAGHTNVLALQSSAAGSATNVGVQILDRTGAALTLDGATFSSETTLNNGTNTIPFQARYFATGAATPGAANADATFKVQYQ
notes: also called FimAt (in the FimCHisIA structure)
B1: the binding result (with FimI [1]; in [2]) was “binds” in each case.
Turning to B2, the binding result with FimC was “binds”.

B3: FimAt (residues 18-159 of FimA) (domain or fragment, E. coli, UniProt P04128 41-182, looked up)
chain: NAACAVDAGSVDQTVQLGQVRTASLAQEGATSSAVGFNIQLNDCDTNVASKAAVAFLGTAIDAGHTNVLALQSSAAGSATNVGVQILDRTGAALTLDGATFSSETTLNNGTNTIPFQARYFATGAATPGAANADATFKVQYQ
B3: the binding result in the assay with FimA [3] and with FimC was “binds” each time.
For B4, the binding result (in [4]; in the assay with FimC) was “binds” each time.
In the case of B5, in the assay with FimI [5], the “FimC-catalyzed folding of oxidized, unfolded FimI, rate constant by stopped-flow tryptophan fluorescence (pseudo-first-order fit, pH 8.0)” value came to 73000 M^−1 s^−1. Also, in the assay with FimA [6], the “FimC-catalyzed folding of oxidized, unfolded FimA, rate constant by stopped-flow tryptophan fluorescence (pseudo-first-order fit, pH 8.0)” value turned out to be 43000 M^−1 s^−1. For the same molecule, in the assay with FimA [7], the dissociation half-life stood at 26 ± 1 s.
Take B6: the dissociation half-life was 1.58 ± 0.14 h in the assay with FimFt, 1.41 ± 0.12 h in assay [8], 3.85 ± 0.43 h in assay [9] and 63 ± 5.7 s in the assay with FimI [10].
